Reference: IntAct's records for PubMed 17187077

B1: Nuclear receptor subfamily 2 group C member 1 (Mus musculus), Q505F1 (parent)
chain: MATIEEIAHQIIDQQMGEIVTEQQTGQKIQIVTALDHSTQGKQFILANHEGSTPGKVFLTTPDAAGVNQLFFTSPDLSAPHLQLLTEKSPDQGPNKVFDLCVVCGDKASGRHYGAITCEGCKGFFKRSIRKNLVYSCRGSKDCVINKHHRNRCQYCRLQRCIAFGMKQDSVQCERKPIEVSREKSSNCAASTEKIYIRKDLRSPLAATPTFVTDSETARSAGLLDSGMFVNIHPSGIKTEPAMLMAPDKAESCQGDLSTLASVVTSLANLGKAKDLSHCGGDMPVVQSLRNGDTSFGAFHHDIQTNGDVSRAFDTLAKALTPGESSACQSPEEGMEGSPHLIAGEPSFVEKEGPLLSESHVAFRLTMPSPMPEYLNVHYIGESASRLLFLSMHWALSIPSFQALGQENSISLVKAYWNELFTLGLAQCWQVMNVATILATFVNCLHSSLQQDKMSPERRKSLMEHIFKLQEFCNSMVKLCIDGHEYAYLKAIVLFSPDHPGLENMELIERFQEKAYVEFQDYITRTYPDDTYRLSRLLLRLPALRLMNATITEELFFKGLIGNVRIDSVIPHILKMEPADYNSQIIGHSL

Variants of: B1
Conditions: with pias1_mouse Pias1, O88907
Chain of pias1_mouse Pias1, O88907 (O88907 whole entry): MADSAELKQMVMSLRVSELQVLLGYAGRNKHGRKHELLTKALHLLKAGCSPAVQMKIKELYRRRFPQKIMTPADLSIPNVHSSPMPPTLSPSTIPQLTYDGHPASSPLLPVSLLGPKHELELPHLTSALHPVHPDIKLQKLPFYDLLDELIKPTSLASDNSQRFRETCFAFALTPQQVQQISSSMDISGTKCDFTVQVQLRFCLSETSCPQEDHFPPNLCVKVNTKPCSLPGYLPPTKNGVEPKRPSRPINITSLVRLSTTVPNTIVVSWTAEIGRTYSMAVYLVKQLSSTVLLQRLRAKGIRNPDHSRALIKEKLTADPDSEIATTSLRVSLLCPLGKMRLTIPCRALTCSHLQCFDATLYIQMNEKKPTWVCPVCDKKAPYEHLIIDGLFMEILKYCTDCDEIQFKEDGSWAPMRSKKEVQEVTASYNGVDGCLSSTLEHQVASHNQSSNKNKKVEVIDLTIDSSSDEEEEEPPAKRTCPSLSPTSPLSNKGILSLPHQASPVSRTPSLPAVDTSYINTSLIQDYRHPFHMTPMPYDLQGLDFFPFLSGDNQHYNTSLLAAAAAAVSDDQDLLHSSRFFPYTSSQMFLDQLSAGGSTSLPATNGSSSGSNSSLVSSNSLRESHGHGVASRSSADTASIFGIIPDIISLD
With K238A the “effect of a mutation on the interaction” value was “decreasing interaction”.
